What was measured:
Assay in all cases: holdup assay
Conditions in all cases: plain residues with an end cap or a label only (N-terminal biotin on a linker: none)
PDZD4, Q76G19 = target: T1, PDZD4, Q76G19
T1 sequence (Q76G19 125-224, limits assumed, looked up): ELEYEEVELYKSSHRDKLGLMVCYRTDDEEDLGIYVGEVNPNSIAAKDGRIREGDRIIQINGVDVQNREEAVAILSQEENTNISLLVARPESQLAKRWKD

RIMS1, Q86UR5 = target: RIMS1, Q86UR5
PTPN4, P29074 = target: T2, PTPN4, P29074
T2 sequence (P29074 512-599, limits assumed, looked up): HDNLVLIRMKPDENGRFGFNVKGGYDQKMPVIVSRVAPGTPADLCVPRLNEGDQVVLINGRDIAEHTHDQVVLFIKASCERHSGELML

PARD3B_3, Q8TEW8 = target: PARD3B_3, Q8TEW8
Chain of PARD3B_3, Q8TEW8 (Q8TEW8 490-594): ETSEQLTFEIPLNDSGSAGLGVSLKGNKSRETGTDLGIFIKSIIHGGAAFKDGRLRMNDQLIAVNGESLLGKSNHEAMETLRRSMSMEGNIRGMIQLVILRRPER

RIMS2, Q9UQ26 = target: RIMS2, Q9UQ26
Chain of RIMS2, Q9UQ26 (Q9UQ26 637-758): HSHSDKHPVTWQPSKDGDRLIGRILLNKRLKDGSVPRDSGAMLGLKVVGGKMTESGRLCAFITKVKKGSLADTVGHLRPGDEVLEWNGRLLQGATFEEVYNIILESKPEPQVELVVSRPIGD

CNKSR1, Q969H4 = target: T3, CNKSR1, Q969H4
T3 sequence (Q969H4 191-295, limits assumed, looked up): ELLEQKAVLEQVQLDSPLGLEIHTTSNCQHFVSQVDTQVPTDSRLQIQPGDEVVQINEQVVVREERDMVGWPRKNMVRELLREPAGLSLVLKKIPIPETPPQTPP

MAGI1_6, Q96QZ7 = target: MAGI1_6, Q96QZ7
Chain of MAGI1_6, Q96QZ7 (Q96QZ7 1146-1238): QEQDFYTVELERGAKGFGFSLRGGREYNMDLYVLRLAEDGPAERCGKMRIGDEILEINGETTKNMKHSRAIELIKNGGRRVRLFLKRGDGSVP

PDZD2_3, O15018 = target: T4, PDZD2_3, O15018
T4 sequence (O15018 581-682, limits assumed, looked up): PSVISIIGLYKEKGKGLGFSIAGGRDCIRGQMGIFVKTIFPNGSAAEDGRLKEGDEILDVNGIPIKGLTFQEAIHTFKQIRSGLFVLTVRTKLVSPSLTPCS

USH1C_2, Q9Y6N9 = target: T5, USH1C_2, Q9Y6N9
T5 sequence (Q9Y6N9 206-303, limits assumed, looked up): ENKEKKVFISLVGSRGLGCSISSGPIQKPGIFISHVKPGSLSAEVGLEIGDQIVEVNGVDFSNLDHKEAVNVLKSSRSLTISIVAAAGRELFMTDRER

PTPN13_5, Q12923 = target: T6, PTPN13_5, Q12923
T6 sequence (Q12923 1877-1975, limits assumed, looked up): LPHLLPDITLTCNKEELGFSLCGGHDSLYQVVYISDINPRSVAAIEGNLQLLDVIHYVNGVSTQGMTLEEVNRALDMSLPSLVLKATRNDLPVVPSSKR

PDZD11, Q5EBL8 = target: T7, PDZD11, Q5EBL8
T7 sequence (Q5EBL8 42-139, limits assumed, looked up): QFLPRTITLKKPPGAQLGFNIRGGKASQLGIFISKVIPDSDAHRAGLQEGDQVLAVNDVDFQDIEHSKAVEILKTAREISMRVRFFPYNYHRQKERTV

USH1C_3, Q9Y6N9 = target: T8, USH1C_3, Q9Y6N9
T8 sequence (Q9Y6N9 447-547, limits assumed, looked up): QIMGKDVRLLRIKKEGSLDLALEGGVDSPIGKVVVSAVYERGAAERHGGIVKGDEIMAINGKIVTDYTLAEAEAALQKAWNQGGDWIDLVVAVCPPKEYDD

PDZD7_2, Q9H5P4 = target: T9, PDZD7_2, Q9H5P4
T9 sequence (Q9H5P4 205-303, limits assumed, looked up): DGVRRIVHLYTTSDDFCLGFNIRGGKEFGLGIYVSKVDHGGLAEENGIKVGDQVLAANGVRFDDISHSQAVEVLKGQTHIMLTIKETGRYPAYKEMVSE

PARD6B, Q9BYG5 = target: T10, PARD6B, Q9BYG5
T10 sequence (Q9BYG5 152-260, limits assumed, looked up): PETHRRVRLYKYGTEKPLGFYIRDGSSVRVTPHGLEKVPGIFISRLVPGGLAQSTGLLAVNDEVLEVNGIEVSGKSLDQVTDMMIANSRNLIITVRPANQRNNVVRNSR

NHERF3_2, Q5T2W1 = target: T11, NHERF3_2, Q5T2W1
T11 sequence (Q5T2W1 129-225, limits assumed, looked up): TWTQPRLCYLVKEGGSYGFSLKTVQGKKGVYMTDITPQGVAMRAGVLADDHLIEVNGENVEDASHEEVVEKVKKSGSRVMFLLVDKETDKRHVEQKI

USH1C_1, Q9Y6N9 = target: T12, USH1C_1, Q9Y6N9
T12 sequence (Q9Y6N9 82-179, limits assumed, looked up): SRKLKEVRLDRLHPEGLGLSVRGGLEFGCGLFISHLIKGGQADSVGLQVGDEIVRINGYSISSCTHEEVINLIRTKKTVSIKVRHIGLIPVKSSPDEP

SIPA1L3, O60292 = target: T13, SIPA1L3, O60292
T13 sequence (O60292 961-1052, limits assumed, looked up): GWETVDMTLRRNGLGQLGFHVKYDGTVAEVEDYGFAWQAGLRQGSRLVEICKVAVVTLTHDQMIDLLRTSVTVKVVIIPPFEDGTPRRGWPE

GRIP1_1, Q9Y3R0 = target: T14, GRIP1_1, Q9Y3R0
T14 sequence (Q9Y3R0 48-146, limits assumed, looked up): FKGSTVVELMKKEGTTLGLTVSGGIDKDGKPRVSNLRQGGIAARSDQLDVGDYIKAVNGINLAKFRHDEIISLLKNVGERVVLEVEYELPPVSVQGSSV

SYNPO2L, Q9H987 = target: T15, SYNPO2L, Q9H987
T15 sequence (Q9H987 1-98, limits assumed, looked up): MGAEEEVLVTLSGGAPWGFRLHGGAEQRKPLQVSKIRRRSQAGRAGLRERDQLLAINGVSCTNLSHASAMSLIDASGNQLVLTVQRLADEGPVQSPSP

PREX1_1, Q8TCU6 = target: PREX1_1, Q8TCU6
Chain of PREX1_1, Q8TCU6 (Q8TCU6 608-718): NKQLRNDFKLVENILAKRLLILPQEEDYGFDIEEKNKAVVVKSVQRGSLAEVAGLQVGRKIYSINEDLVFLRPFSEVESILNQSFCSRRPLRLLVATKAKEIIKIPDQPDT

PDLIM4, P50479 = target: PDLIM4, P50479
Chain of PDLIM4, P50479 (P50479 1-83): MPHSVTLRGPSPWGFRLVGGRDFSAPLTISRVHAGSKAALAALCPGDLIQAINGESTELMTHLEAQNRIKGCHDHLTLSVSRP

IL16_2, Q14005 = target: IL16_2, Q14005
Chain of IL16_2, Q14005 (Q14005 350-450): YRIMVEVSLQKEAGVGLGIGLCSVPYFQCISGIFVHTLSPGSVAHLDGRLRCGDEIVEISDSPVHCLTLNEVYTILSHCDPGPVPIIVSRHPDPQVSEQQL

Measured: pKd

Chain of RIMS1, Q86UR5 (Q86UR5 584-692): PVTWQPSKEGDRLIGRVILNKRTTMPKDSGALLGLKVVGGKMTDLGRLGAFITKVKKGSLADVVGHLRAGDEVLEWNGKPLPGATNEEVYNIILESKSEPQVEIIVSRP

NLNSSRVPDLLV [SARS-CoV2-E, P0DTC4]
below the threshold: all assays above
